Reference: IntAct's records for PubMed 29039417

B1: BBSome-interacting protein 1 (Homo sapiens), A8MTZ0 (parent)
chain: MLKAAAKRPELSGKNTISNNSDMAEVKSMFREVLPKQGPLFVEDIMTMVLCKPKLLPLKSLTLEKLEKMHQAAQNTIRQQEMAEKDQRQITH
partner: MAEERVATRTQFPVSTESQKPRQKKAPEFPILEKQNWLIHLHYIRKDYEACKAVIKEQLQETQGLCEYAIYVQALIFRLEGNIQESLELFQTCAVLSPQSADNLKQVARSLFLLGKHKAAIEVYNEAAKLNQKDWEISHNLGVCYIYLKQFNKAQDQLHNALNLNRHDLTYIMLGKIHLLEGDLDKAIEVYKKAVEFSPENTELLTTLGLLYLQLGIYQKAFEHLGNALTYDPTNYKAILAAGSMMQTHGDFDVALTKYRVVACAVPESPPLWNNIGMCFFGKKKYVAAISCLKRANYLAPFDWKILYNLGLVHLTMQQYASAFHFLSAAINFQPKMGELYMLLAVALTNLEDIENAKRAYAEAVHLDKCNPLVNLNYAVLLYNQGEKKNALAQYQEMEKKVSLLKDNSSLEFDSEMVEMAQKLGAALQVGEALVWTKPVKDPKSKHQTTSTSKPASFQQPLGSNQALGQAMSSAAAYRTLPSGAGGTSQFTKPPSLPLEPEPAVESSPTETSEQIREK

Variants of: B1
Details: with bbs4_human BBS4, Q96RK4

effect of a mutation on the interaction | Variant
with no effect | M46A
with no effect | M46K
disrupting interaction strength | M46F
with no effect | M46E
with no effect | G38E
with no effect | G38K
with no effect | G38A
with no effect | F41E
with no effect | F41K
with no effect | F41A
with no effect | M48E
with no effect | M48K
with no effect | M48A
with no effect | L40E
with no effect | L40K
with no effect | L40A
with no effect | F30A
with no effect | F30K
disrupting interaction strength | F30S
with no effect | F30E
with no effect | K36E
with no effect | K36A

effect of a mutation on the interaction | Variant
disrupting interaction strength | K36P
disrupting interaction strength | K36Y
with no effect | P53E
with no effect | P53K
with no effect | P53A
with no effect | D44K
with no effect | D44E
with no effect | D44A
with no effect | E43K
with no effect | E43A
with no effect | L50A
with no effect | L50K
with no effect | L50E
with no effect | V49K
with no effect | V49E
with no effect | V49A
with no effect | V33E
with no effect | V33A
with no effect | V33K
with no effect | R31E
with no effect | R31A
with no effect | R31K

effect of a mutation on the interaction | Variant
disrupting interaction strength | P35T
with no effect | P35E
with no effect | P35A
disrupting interaction strength | P35R
disrupting interaction strength | P35S
with no effect | P35K
with no effect | T47E
disrupting interaction strength | T47R
with no effect | T47K
with no effect | T47A
with no effect | I45E
with no effect | I45A
with no effect | I45K
with no effect | P39K
with no effect | P39A
with no effect | P39E
with no effect | K52A
disrupting interaction strength | K52I
disrupting interaction strength | K52Y
with no effect | K52E
with no effect | E32A
disrupting interaction strength | E32K

effect of a mutation on the interaction | Variant
disrupting interaction strength | L34H
disrupting interaction strength | L34R
with no effect | L34E
disrupting interaction strength | L34A
with no effect | L34K
disrupting interaction strength | L34D
disrupting interaction strength | L34P
with no effect | Q37A
with no effect | Q37E
with no effect | Q37K
with no effect | V42K
with no effect | V42A
with no effect | V42E
with no effect | C51A
with no effect | C51K
with no effect | C51E
disrupting interaction strength | C51S
disrupting interaction strength | M29F
with no effect | M29K
